For this experiment, the target named is SARS-CoV spike prefusion stabilized ectodomain trimer (SARS-CoV) (UniProt P59594). In words: cryo-EM structure.

47D11 Fab fragment: the stoichiometry N (Fab per spike trimer) stood at 3.

The values above are taken from publication PMC8172134.
